Here are results for 8 molecules from patent US11278600B2, “Human alpha-galactosidase variants” (Codexis, Inc., priority 2014, dated 2022).

Common to all, as to assay type: biochemical
The nature of data set [1]: HTP-analysis of yeast culture supernatants, no challenge (MUGal hydrolysis). Conditions: activity of the variant/activity of Rd3BB (SEQ ID NO: 13). Put shortly: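 GLA variants were expressed in INVSc1 yeast grown in SD-Ura broth with glucose at 30° C., and culture supernatants were collected after 66-84 h. Supernatant was mixed with McIlvaine buffer pH 4.8 and MUGal (2 mM stock) in 50 mM citrate, 200 mM KCl, pH 4.6, incubated at 37° C. for 30-180 minutes, then quenched with sodium carbonate.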

The nature of data set [2]: HTP-analysis of supernatants pretreated with acid (MUGal hydrolysis). Conditions: activity of the variant/activity of Rd3BB (SEQ ID NO: 13); challenge at pH 3.7. Put shortly:
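Supernatants from INVSc1 yeast secreting GLA variants were challenged at 37° C. for 1-3 h in McIlvaine buffer at pH 3.3-4.3. Residual activity was then measured on 4 mM MUGal substrate stock at pH 4.8 with citrate buffer pH 4.3, over 30-180 min at 37° C. Reactions were quenched with sodium carbonate and read by fluorescence (Ex 355/Em 448 nm).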

Data set [3] can be described thus: HTP-analysis of supernatants pretreated with base (MUGal hydrolysis). Conditions: activity of the variant/activity of Rd3BB (SEQ ID NO: 13); challenge at pH 9.7. Put shortly:
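GLA variants were secreted by transformed INVSc1 yeast grown 66-84 h at 30° C. Supernatants were exposed to neutral-to-basic buffers (pH 7.0-9.7) at 37° C for 1-18 h, then assayed with MUGal in acidic citrate/McIlvaine buffer, with fluorescence read after quenching.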

B1: 587 (protein)
chain: LDNGLARTPTMGWLHWERFMCNLDCQEEPDSCISEKLFMEMAERMVSEGWKDAGYEYLCIDDCWMAPQRDSEGRLQADPQRFPHGIRQLANHVHSKGLKLGIYADVGNKTCAGFPGSFGYYDIDAQTFADWGVDLLKFDGCYCDSLENLADGYKHMSLALNRTGRSIVYSCEWPLYMWPFQKPNYTEIRQYCNHWRNFADIDDSWASIKRILDWTSRNQERIVDVAGPGGWNDPDMLVIGNFGLSWDQQVTQMALWAIMAAPLFMSNDLRHISPQAKALLQDKDVIAINQDPLGKQGYQLRKGDNFEVWERPLSGDAWAVAIINRQEIGGPRSYTIPVASLGKGVACNPACFITQLLPVKRQLGFYNWTSRLKSHINPTGTVLLQLENTMQMSLKDLL
modifications: Synthetic Polypeptide sequence of Variant No. 587 of mature Human GLA
With B1, the “Relative Activity of GLA Variants After No Challenge (NC)” value in data set [1] is “+ (+ = 1.5 to 5 relative activity over Rd3BB (SEQ ID NO: 13))”. Besides, in data set [2], the “Relative Activity of GLA Variants After Challenge at pH 3.7” value (from here on “Relative Activity … at pH 3.7”) was “+ (+ = 1.5 to 5 relative activity over Rd3BB (SEQ ID NO: 13))”. Further, the “Relative Activity of GLA Variants After Challenge at pH 9.7” value (shortened to “Relative Activity … at pH 9.7”) in data set [3] is on record as “++ (++ = >5 to 10 relative activity over Rd3BB (SEQ ID NO: 13))”.

B2: 588 (protein)
chain: LDNGLARTPTMGWLHWERFMCNLDCQEEPDSCISEKLFMEMAERMVSEGWKDAGYEYLCIDDCWMAPQRDSEGRLQADPQRFPHGIRQLANHVHSAGLKLGIYADVGNKTCAGFPGSFGYYDIDAQTFADWGVDLLKFDGCYCDSLENLADGYKHMSLALNRTGRSIVYSCEWPLYMWPFQKPNYTEIRQYCNHWRNFADIDDSWASIKSILDWTSRNQERIVDVAGPGGWNDPDMLVIGNFGLSWDQQVTQMALWAIMAAPLFMSNDLRHISPQAKALLQDKDVIAINQDPLGKQGYQLRKGDNFEVWERPLSGDAWAVAIINRQEIGGPRSYTIPVASLGKGVACNPACFITQLLPVKRQLGFYNWTSRLKSHINPTGTVLLQLENTMQMSLKDLL
modifications: Synthetic Polypeptide sequence of Variant No. 588 of mature Human GLA
B2: the “Relative Activity of GLA Variants After No Challenge (NC)” value in data set [1] was “+ (+ = 1.5 to 5 relative activity over Rd3BB (SEQ ID NO: 13))”. Besides, the “Relative Activity … at pH 3.7” value in data set [2] is reported as “+ (+ = 1.5 to 5 relative activity over Rd3BB (SEQ ID NO: 13))”. For the same molecule, the “Relative Activity … at pH 9.7” value in data set [3] is on record as “+ (+ = 1.5 to 5 relative activity over Rd3BB (SEQ ID NO: 13))”.

B3: 590 (protein)
chain: LDNGLARTPTMGWLHWERFMCNLDCQEEPDSCISEKLFMEMAERMVSEGWKDAGYEYLCIDDCWMAPQRDSEGRLQADPQRFPHGIRQLANHVHSKGLKLGIYADVGNKTCAGFPGSFGYYDIDAQTFADWGVDLLKFDGCYCDSLENLADGYKHMSLALNRTGRSIVYSCEWPLYMWMFQKPNYTEIRQYCNHWRNFADIDDSWASIKSILDWTSRNQERIVDVAGPGGWNDPDMLVIGNFGLSWDQQVTQMALWAIMAAPLFMSNDLRHISPQAKALLQDKDVIAINQDPLGKQGYQLRKGDNFEVWERPLSGDAWAVAIINRQEIGGPRSYTIPVASLGKGVACNPACFITQLLPVKRQLGFYNWTSRLKSHINPTGTVLLQLENTMQMSLKDLL
modifications: Synthetic Polypeptide sequence of Variant No. 590 of mature Human GLA
On to B3, for which, in data set [1], the “Relative Activity of GLA Variants After No Challenge (NC)” value is “+ (+ = 1.5 to 5 relative activity over Rd3BB (SEQ ID NO: 13))”. Also, in data set [2], the “Relative Activity … at pH 3.7” value is on record as “+ (+ = 1.5 to 5 relative activity over Rd3BB (SEQ ID NO: 13))”. Besides, the “Relative Activity … at pH 9.7” value in data set [3] is “+ (+ = 1.5 to 5 relative activity over Rd3BB (SEQ ID NO: 13))”.

B4: 589 (protein)
chain: LDNGLARTPTMGWLHWERFMCNLDCQEEPDSCISEKLFMEMAERMVSEGWKDAGYEYLCIDDCWMAPQRDSEGRLQADPQRFPHGIRQLANHVHSWGLKLGIYADVGNKTCAGFPGSFGYYDIDAQTFADWGVDLLKFDGCYCDSLENLADGYKHMSLALNRTGRSIVYSCEWPLYMWPFQKPNYTEIRQYCNHWRNFADIDDSWASIKSILDWTSRNQERIVDVAGPGGWNDPDMLVIGNFGLSWDQQVTQMALWAIMAAPLFMSNDLRHISPQAKALLQDKDVIAINQDPLGKQGYQLRKGDNFEVWERPLSGDAWAVAIINRQEIGGPRSYTIPVASLGKGVACNPACFITQLLPVKRQLGFYNWTSRLKSHINPTGTVLLQLENTMQMSLKDLL
modifications: Synthetic Polypeptide sequence of Variant No. 589 of mature Human GLA
With B4, in data set [1], the “Relative Activity of GLA Variants After No Challenge (NC)” value is reported as “+ (+ = 1.5 to 5 relative activity over Rd3BB (SEQ ID NO: 13))”. Besides, the “Relative Activity … at pH 3.7” value in data set [2] is on record as “+ (+ = 1.5 to 5 relative activity over Rd3BB (SEQ ID NO: 13))”. In data set [3], the “Relative Activity … at pH 9.7” value is on record as “+ (+ = 1.5 to 5 relative activity over Rd3BB (SEQ ID NO: 13))”.

B5: 593 (protein)
chain: LDNGLARTPTMGWLHWERFMCNLDCQEEPDSCISEKLFMEMAERMVSEGWKDAGYEYLCIDDCWMAPQRDSEGRLQADPQRFPHGIRQLANHVHAKGLKLGIYADVGNKTCAGFPGSFGYYDIDAQTFADWGVDLLKFDGCYCDSLENLADGYKHMSLALNRTGRSIVYSCEWPLYMWPFQKPNYTEIRQYCNHWRNFADIDDSWASIKSILDWTSRNQERIVDVAGPGGWNDPDMLVIGNFGLSWDQQVTQMALWAIMAAPLFMSNDLRHISPQAKALLQDKDVIAINQDPLGKQGYQLRKGDNFEVWERPLSGDAWAVAIINRQEIGGPRSYTIPVASLGKGVACNPACFITQLLPVKRQLGFYNWTSRLKSHINPTGTVLLQLENTMQMSLKDLL
modifications: Synthetic Polypeptide sequence of Variant No. 593 of mature Human GLA
As for B5, in data set [1], the “Relative Activity of GLA Variants After No Challenge (NC)” value was “+ (+ = 1.5 to 5 relative activity over Rd3BB (SEQ ID NO: 13))”. The “Relative Activity … at pH 3.7” value in data set [2] is “+ (+ = 1.5 to 5 relative activity over Rd3BB (SEQ ID NO: 13))”. Besides, the “Relative Activity … at pH 9.7” value in data set [3] is recorded as “++ (++ = >5 to 10 relative activity over Rd3BB (SEQ ID NO: 13))”.

B6: 591 (protein)
chain: LDNGLARTPTMGWLHWERFMCNLDCQEEPDSCISEKLFMEMAERMVSEGWKDAGYEYLCIDDCWMAPQRDSEGRLQADPQRFPHGIRQLANHVHSKGLKLGIYADVGNKTCAGFPGSFGYYDIDAQTFADWGVDLLKFDGCYCDSLENLADGYKHMSLALNRTGRSIVYSCEWPLYMWPFQKPNYTEIKQYCNHWRNFADIDDSWASIKSILDWTSRNQERIVDVAGPGGWNDPDMLVIGNFGLSWDQQVTQMALWAIMAAPLFMSNDLRHISPQAKALLQDKDVIAINQDPLGKQGYQLRKGDNFEVWERPLSGDAWAVAIINRQEIGGPRSYTIPVASLGKGVACNPACFITQLLPVKRQLGFYNWTSRLKSHINPTGTVLLQLENTMQMSLKDLL
modifications: Synthetic Polypeptide sequence of Variant No. 591 of mature Human GLA
With B6, the “Relative Activity of GLA Variants After No Challenge (NC)” value in data set [1] is recorded as “+ (+ = 1.5 to 5 relative activity over Rd3BB (SEQ ID NO: 13))”. Further, the “Relative Activity … at pH 3.7” value in data set [2] is listed as “+ (+ = 1.5 to 5 relative activity over Rd3BB (SEQ ID NO: 13))”. Also, in data set [3], the “Relative Activity … at pH 9.7” value is “++ (++ = >5 to 10 relative activity over Rd3BB (SEQ ID NO: 13))”.

B7: 521 (protein)
chain: LDNGLARTPTMGWLHWERFMCNLDCQEEPDSCISEKLFMEMAERMVSEGWKNAGYEYLCIDDCWMAPQRDSEGRLQADPQRFPHGIRQLANHVHSKGLKLGIYADVGNKTCAGFPGSFGYYDIDAQTFADWGVDLLKFDGCYCDSLENLADGYKHMSLALNRTGRSIVYSCEWPLYMWPFQKPNYTEIRQYCNHWRNFADIDDSWASIKSILDWTSRNQERIVDVAGPGGWNDPDMLVIGNFGLSWDQQVTQMALWAIMAAPLFMSNDLRHISPQAKALLQDKDVIAINQDPLGKQGYQLRKGDNFEVWERPLSGDAWAVAIINRQEIGGPRSYTIPVASLGKGVACNPACFITQLLPVKRQLGFYNWTSRLKSHINPTGTVLLQLENTMQMSLKDLL
modifications: Synthetic Polypeptide sequence of Variant No. 521 of mature Human GLA
With B7, the “Relative Activity of GLA Variants After No Challenge (NC)” value in data set [1] was “+ (+ = 1.5 to 5 relative activity over Rd3BB (SEQ ID NO: 13))”. Besides, in data set [2], the “Relative Activity … at pH 3.7” value was “+ (+ = 1.5 to 5 relative activity over Rd3BB (SEQ ID NO: 13))”. Further, the “Relative Activity … at pH 9.7” value in data set [3] was “++ (++ = >5 to 10 relative activity over Rd3BB (SEQ ID NO: 13))”.

B8: 592 (protein)
chain: LDNGLARTPTMGWLHWERFMCNLDCQEEPDSCISEKLFMEMAERMVSEGWKDAGYEYLCIDDCWMAPQRDSEGRLQADPQRFPHGIRQLANHVHSKGLKLGIYADVGNKTCAGFPGSFGYYDIDAQTFADWGVDLLKFDGCYCDSLENLADGYKHMSLALNRTGRSIVYSCEWPLYMWPFQKPNYTEIVQYCNHWRNFADIDDSWASIKSILDWTSRNQERIVDVAGPGGWNDPDMLVIGNFGLSWDQQVTQMALWAIMAAPLFMSNDLRHISPQAKALLQDKDVIAINQDPLGKQGYQLRKGDNFEVWERPLSGDAWAVAIINRQEIGGPRSYTIPVASLGKGVACNPACFITQLLPVKRQLGFYNWTSRLKSHINPTGTVLLQLENTMQMSLKDLL
modifications: Synthetic Polypeptide sequence of Variant No. 592 of mature Human GLA
With B8, the “Relative Activity of GLA Variants After No Challenge (NC)” value in data set [1] is given as “+ (+ = 1.5 to 5 relative activity over Rd3BB (SEQ ID NO: 13))”. In data set [2], the “Relative Activity … at pH 3.7” value was “+ (+ = 1.5 to 5 relative activity over Rd3BB (SEQ ID NO: 13))”. For the same molecule, the “Relative Activity … at pH 9.7” value in data set [3] is on record as “++ (++ = >5 to 10 relative activity over Rd3BB (SEQ ID NO: 13))”.
